Target: T1, L1-Fc (human L1-Fc protein comprising the ectodomain of L1) (human, UniProt P32004 20-1120)
T1 construct: extracellular domain; also called L1CAM; CD171; not shown: Fc part
Test: SPR, BIAcore 3000, L1-Fc immobilised on CM5 chip, antibody injected
Procedure: (§1) Affinity to L1 may be determined by methods known in the art, as for example by surface plasmon resonance. The binding analysis for L1-OV52.24 was performed using a BIAcore 3000 equipped with a CM5 sensor chip. Briefly, a BIAcore CM5 chip was activated with EDC/NHS and various levels of L1-Fc were captured onto the activated surface. The remaining active sites were blocked by ethanolamine/HCl. L1-OV52.24 was bound to the L1-Fc surface and allowed to dissociate over time. The association and dissociation phases for each injection over each density surface were subjected to kinetic analysis.
as §1, with “The” for “Affinity to L1 may be determined by methods known in the art, as for example by surface plasmon resonance. The”, “analysis” for “analysis for L1-OV52.24”, “L1-mAb were” for “L1-OV52.24 was”

T1 sequence (P32004 20-1120): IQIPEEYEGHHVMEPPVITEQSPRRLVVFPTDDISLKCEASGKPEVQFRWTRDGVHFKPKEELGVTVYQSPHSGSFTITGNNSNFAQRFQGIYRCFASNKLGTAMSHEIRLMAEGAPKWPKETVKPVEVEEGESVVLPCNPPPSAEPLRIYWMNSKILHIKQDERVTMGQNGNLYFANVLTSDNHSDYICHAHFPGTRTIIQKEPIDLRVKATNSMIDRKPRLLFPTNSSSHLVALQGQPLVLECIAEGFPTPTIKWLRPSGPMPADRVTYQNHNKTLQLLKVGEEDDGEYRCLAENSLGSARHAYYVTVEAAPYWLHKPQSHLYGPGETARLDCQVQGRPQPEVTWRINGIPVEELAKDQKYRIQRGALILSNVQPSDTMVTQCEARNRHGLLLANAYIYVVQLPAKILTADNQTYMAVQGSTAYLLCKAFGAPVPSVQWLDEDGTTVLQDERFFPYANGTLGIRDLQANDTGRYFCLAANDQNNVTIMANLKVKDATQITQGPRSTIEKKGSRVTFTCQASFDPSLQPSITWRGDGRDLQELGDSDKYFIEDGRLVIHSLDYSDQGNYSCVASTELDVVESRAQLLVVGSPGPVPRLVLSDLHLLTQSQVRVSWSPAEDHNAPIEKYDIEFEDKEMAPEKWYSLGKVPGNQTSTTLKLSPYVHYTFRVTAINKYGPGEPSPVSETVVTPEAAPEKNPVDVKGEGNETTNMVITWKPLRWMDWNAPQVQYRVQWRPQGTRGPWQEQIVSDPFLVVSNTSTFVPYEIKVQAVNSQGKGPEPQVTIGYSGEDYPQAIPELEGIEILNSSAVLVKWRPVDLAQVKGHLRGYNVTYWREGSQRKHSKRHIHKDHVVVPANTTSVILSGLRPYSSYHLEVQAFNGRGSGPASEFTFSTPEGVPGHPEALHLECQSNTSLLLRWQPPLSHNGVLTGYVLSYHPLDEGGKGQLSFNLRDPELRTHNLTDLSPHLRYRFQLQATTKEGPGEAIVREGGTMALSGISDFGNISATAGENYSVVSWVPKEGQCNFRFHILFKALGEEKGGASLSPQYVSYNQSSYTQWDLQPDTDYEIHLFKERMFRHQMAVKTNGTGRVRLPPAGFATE

Kd: 2.41 nM
B1: monoclonal antibody L1-OV52.24 (antibody, IgG1, V domains shown)
VH: EVQLQQSGAELVRPGALVKLSCKASGFNIKDYYMQWVKQRPEQGLEWIGWIDPENGKTVFDPKFRGKASISADTSSNTAYLQLSSLTSEDTAVYYCARWNPLAFWGQGTLVTVSS
VL: DIVMTQSQKFMSTSVGDRVSVTCKASQNVGTNVAWYQQKPGHSPKALIYSTSYRYSGVPDRFTGSGSGTDFTLTIRNVQSEDLAEYFCQQYNTYPYTFGGGTKLEIK
notes: also called mAb L1-OV52.24; L1CAM mAb OV52.24

— patent publication US20170306015A1 (DEUTSCHES KREBSFORSCHUNGSZENTRUM STIFTUNG DES FFENTLICHEN …, published 2017)
